This is an account of results in the nanobody polyreactivity screen of Harvey et al. (2022).

The nature of the data set: yeast display, Sf9 membrane polyspecificity reagent, FACS + sequencing; frameworks hold sequencing errors. Put shortly: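 Nanobodies came from a synthetic yeast display library in Saccharomyces cerevisiae BJ5465, induced with galactose for 36–48 hours and stained for 1 hour at 4 °C with 10% biotinylated, detergent-solubilized Sf9 membrane reagent. Cells were enriched on streptavidin microbeads and then FACS-sorted, with low and high (top ~1%) gates set on anti-HA fluorescence for expression and streptavidin fluorescence for reagent binding. Each polyreactivity label reflects the gate a clone came from. Genes were amplified by colony PCR, sequenced by MiSeq 2 × 250 and filtered by CDR length.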
With “QVQLVESGGGLVQAGGSLRLSCAASGLIFTTNAMGWYRQAPGKERELVAAISTSTGRTYYADSVKGRFTISRDNAKNTVYLQMNSLKPEDTAVYYCARGSRYVGTQRHYYKYDYWGQGTQVTVSS”, the “polyreactivity (PSR sort gate)” value is given as “high polyreactivity”.
For “QVQLVESGGGLVQAGGSLRLSCAASGFIFYYNAMGWYRQAPGKERELVAAISSSAGSTYYADSVKGRFTISRDNAKNTVYLQMNSLKPEDTAVYYCNADSSYRTIDSASDYDYWGQGTQVTVSS” the value was “low polyreactivity”; for “QVQLVESGGGLVQAGGSLRLSCAASGRTFKSYAMGWYRQAPGKERELVATITRDGRTNYADSVKGRFTISRDNAKNTVYLQMNSLKPEDTAVYYCNADSRYRYDYWGLGTQVTVSS”, “low polyreactivity”.
For “QVQLEESGGGLVQAAGSLRLRCAASGSTLTFNAMGWYRHAPGKERELVAAISWSDTDTYYADSVKGRFTISRDNAKNTVYLQMNSLKPEDTAVYYCASTLSAYEMDYWGQGTQVTVSS” the value was “low polyreactivity”; for “QVQLVESGGGLVQAGGSLRLSCAASGFIFPYYAMGWYRPAPGKERELVAAITSSGGSTYYADSVKGRFTISRDNAKNTVYLQMNSLKPEDTAVYYFNAYVRRTRVYDYWGQGTLVTVSS”, “high polyreactivity”; for “QVQLVESGGGLVQAGGSLRLSCAASGFNFPRYVMGWYRQAPGKERELVAAINSDISTNYADSVKGRFTISRDNANNSVYLQMTSLKPEDTAVFYCADERWDDPWEFDSWGQCTQVTVSS”, “low polyreactivity”.
For “QVQLVESGGGLVQAGGSLRLSCAASGRTFGYYAMGWYRTAPGKERELVAAIRSTGSTNYADSVKGRFTISRDNAKNTVYLQMNSLKPEDTAVYYCNAKRRFRYDYWGQGTQVTVSS” the value was “low polyreactivity”; for “QVQLVESGGGLVQAGGSLRLSCAASGSIFPVYAMGWYRQAPGKERELVATIRSGGARTYYADSVKGRFTISRDNAKNTVYLQMNSLKPEDTAVYYCATRWPHYGGYYYWGQGTQVTVSS”, “high polyreactivity”.
Regarding “QVQLVESGGGLVQAGGSLSLSCAASGRIFKSYAMGWYRQAPGKERELVAAIRSGGSTYYADSVKGRFTISRDNAKNTVYFQMNSLKPEDTAVYYCNRVTRTWKVTYHYWGQGTQVTVSS”, the “polyreactivity (PSR sort gate)” value is listed as “high polyreactivity”.
For the sequence “QVQLVESGGGLVQAGGSLRLSCAASGSIFVSYTMGWYRQPPGKERELVAAISGGGASTYYADSVKGRFTISRDNAKNTVYLQMNSLKPEDTAVYYCNASRKRSYDYWGQGTQVTVSS”, the “polyreactivity (PSR sort gate)” value was “low polyreactivity”.
For the sequence “QVQLVESGGGIFHAGGSLRLRCAASGSIYRGYAMVWYRQAPGKERELVASIRWRGGRTNYADSVKGRFTISRDNAKNTVYLQMNSLKPEDTAVYYCNADQQTIRSGKNDYWGQGTQVTVSS”, the “polyreactivity (PSR sort gate)” value is “low polyreactivity”.
Then “QDQLVDSGGGLVQAGGSLRLSCAASGSNFCGKAMGWYRQAPGKEREFVAAITRSGGSTYYADSVKGRFTISRDNAKNTVYLQMNSLKPEDTAVYYCNRDYAFKHHRAGYGYWGQGTLVTVSS”, with “low polyreactivity”; and “QVQLVESGGGLVQAGGSLRLSCAASGSIFRIYAMGWYRQAPGKERELVAAISTSGVRTYYADSVKGRFTISRDNAKNTVYLQMNSLKPEDTAVYYCNARYVRPRGTGDFDYWGQGTQVTVSS”, with “high polyreactivity”.
In the case of “QVQLVESGGGLVQAGGSLRLSCAASGRTFRYYAMGWYRQAPGKERELVAAITVRTGSTSYADSVKGRFTISRDNAKNTVYLQMNSLKPEDTAVYYCAATSRYFQPPGYGGGRIGYGYWGQGTQVTVSS”, the “polyreactivity (PSR sort gate)” value is reported as “high polyreactivity”.
For “QVQLVESGGGLVQAGGSLRLSCAASGITFPKYAMGWYRQAPGTERELVAAITKSGGSTYYADSVKGRFTISRDNAKNTVYLQMNSLKPEDTEVYYCAVVSRGITKYDYWGQGTQVTVSS”, the “polyreactivity (PSR sort gate)” value is reported as “high polyreactivity”.
As to “QVQHVESGGGLVQAGGSLLLSCAASGSTFGFYTMGWYRQAPGKERELVAAISWSTGRTYYADSVKGRFTISRDNAKNTVYLQMNSLKPEDTAVYYCNADGYPEQVYYYSAFQGMDYWGQGTQVTVSS”, the “polyreactivity (PSR sort gate)” value is on record as “low polyreactivity”.
